Bridge positions count the residues as written; N and C are the ends. Square brackets hold non-standard residues; d marks the D form. Ends that are not written are not given here. Aib = CC(C)(N)C(=O)O
Legend:
Format in all cases: cell-based
[1] = biological target: T1, human GCG receptor (Homo sapiens, UniProt P47871); assay: In vitro cAMP activity in human GCG receptor-expressing CHO cells (LANCE cAMP kit); details: for activity on the glucagon receptor: statement in words in the description; for In vitro activity compared to native peptide (%) vs Glucagon: long-acting conjugates, relative titer from cAMP EC50 compared to human GCG
T1 construct: expressed in transfected cells; host or cells: Chinese hamster ovary (CHO)
Method: (§1) In order to measure the activity of the triple agonists and long-acting conjugates thereof prepared according to Examples 1 and 2, the in-vitro cell activity was measured using cell lines transformed with GLP-1 receptor, glucagon (GCG) receptor, and GIP receptor, respectively.
(§2) The cell lines were transformed to express human GLP-1 receptor, human GCG receptor and human GIP receptor genes in Chinese hamster ovary (CHO), respectively, and are suitable for measuring the activities of GLP-1, GCG, and GIP. Therefore, the activity for each part was measured using each transformed cell line.
(§3) To measure the GCG activity of the triple agonists and long-acting conjugates prepared according to Examples 1 and 2, human GCG was diluted from 50 nM to […] by 4-fold serial dilution, and the triple agonists and long-acting conjugates thereof prepared according to Examples 1 and 2 were diluted from 400 nM to 0.00038 nM by 4-fold serial dilution. The culture medium was removed from the cultured human GCG receptor-expressing CHO cells, 5 μl of each of the serially diluted materials was added to the cells, and then 5 μl of buffer containing cAMP antibody was added to the cells, followed by 15 minutes of incubation at room temperature. Then, cells were lysed by adding 10 μl of detection mix containing cell lysis buffer, and reacted at room temperature for 90 minutes. The cell lysate after the reaction had been completed, was applied to the LANCE cAMP kit (PerkinElmer, USA) to calculate the EC50 value through the accumulated cAMP, and then compared with each other.

[2] = biological target: T2, human GIP receptor (Homo sapiens, UniProt P48546); assay: In vitro cAMP activity in human GIP receptor-expressing CHO cells (LANCE cAMP kit); details: long-acting conjugates; relative titer from cAMP EC50 compared to human GIP
T2 construct: expressed in transfected cells; host or cells: Chinese hamster ovary (CHO)
T2 sequence (P48546 22-466): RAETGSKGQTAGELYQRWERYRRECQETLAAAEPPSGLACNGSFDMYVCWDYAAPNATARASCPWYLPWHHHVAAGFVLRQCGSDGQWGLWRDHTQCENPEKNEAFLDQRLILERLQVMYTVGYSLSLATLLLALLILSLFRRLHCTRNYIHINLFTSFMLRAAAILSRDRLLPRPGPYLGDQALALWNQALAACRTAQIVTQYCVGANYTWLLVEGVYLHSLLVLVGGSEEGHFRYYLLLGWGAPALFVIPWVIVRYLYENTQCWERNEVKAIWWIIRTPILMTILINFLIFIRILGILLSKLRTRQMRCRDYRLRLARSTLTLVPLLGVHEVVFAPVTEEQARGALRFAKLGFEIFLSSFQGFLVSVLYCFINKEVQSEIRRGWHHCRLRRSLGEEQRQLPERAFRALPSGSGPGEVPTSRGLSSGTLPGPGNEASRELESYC
Method: as §1, §2
as §3, with “measure the GIP activity of” for “measure the GCG activity of”, “long-acting conjugates thereof prepared according” for “long-acting conjugates prepared according”, “2, human GIP was diluted” for “2, human GCG was diluted”, “cultured human GIP receptor-expressing CHO” for “cultured human GCG receptor-expressing CHO”

[3] = biological target: T3, human GLP-1 receptor (Homo sapiens, UniProt P43220); assay: In vitro cAMP activity in human GLP-1 receptor-expressing CHO cells (LANCE cAMP kit); details: long-acting conjugates; relative titer from cAMP EC50 compared to human GLP-1
T3 construct: expressed in transfected cells; host or cells: Chinese hamster ovary (CHO)
Method: as §1, §2
as §3, with “GLP-1” for “GCG”

T3 sequence (P43220 24-463): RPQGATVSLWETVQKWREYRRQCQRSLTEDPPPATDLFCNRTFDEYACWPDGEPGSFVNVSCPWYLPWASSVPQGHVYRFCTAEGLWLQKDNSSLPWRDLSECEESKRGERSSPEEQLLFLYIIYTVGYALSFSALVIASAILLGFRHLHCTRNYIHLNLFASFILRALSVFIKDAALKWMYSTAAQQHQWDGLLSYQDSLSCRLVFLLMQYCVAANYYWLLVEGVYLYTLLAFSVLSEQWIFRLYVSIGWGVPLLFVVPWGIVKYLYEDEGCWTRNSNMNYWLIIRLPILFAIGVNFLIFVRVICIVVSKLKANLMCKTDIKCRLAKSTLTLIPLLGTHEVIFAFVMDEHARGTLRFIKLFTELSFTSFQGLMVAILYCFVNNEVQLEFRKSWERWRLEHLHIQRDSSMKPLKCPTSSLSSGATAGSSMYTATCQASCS
T1 sequence (P47871 26-477): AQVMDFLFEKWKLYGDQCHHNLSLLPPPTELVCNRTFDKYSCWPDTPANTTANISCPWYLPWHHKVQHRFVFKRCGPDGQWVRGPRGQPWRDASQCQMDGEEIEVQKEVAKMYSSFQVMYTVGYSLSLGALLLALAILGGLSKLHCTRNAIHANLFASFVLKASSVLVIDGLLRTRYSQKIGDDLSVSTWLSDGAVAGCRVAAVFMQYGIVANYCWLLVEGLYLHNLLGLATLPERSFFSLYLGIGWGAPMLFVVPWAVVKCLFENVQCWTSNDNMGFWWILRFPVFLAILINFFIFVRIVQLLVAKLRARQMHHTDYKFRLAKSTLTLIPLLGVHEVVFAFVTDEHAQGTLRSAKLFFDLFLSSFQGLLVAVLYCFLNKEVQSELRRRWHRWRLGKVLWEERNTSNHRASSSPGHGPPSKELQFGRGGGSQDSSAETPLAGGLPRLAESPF

## 70 (Y[Aib]QGTFTSDYSKCLDEKRAKDFVQWLLDHHPSSGQPPPS; bridge 16-20) [compound 70]
[1]
  activity on the glucagon receptor: very high activity

## 22 (Y[Aib]QGTFTSDYSKCLDEKRAKEFVQWLLDHHPSSGQPPPS; bridge 16-20) [compound 22]
[2]
  In vitro activity compared to native peptide (%) vs GIP: 0.5%
[3]
  In vitro activity compared to native peptide (%) vs GLP-1: 0.1%
[1]
  In vitro activity compared to native peptide (%) vs Glucagon: 0.9%
  activity on the glucagon receptor: very high activity

## 77 (Y[Aib]QGTFTSDYSKYLDEKAAKDFVQWLLDHHPSSGQPPPSC; bridge 16-20) [compound 77]
[2]
  In vitro activity compared to native peptide (%) vs GIP: 6.6%
[3]
  In vitro activity compared to native peptide (%) vs GLP-1: 6.7%
[1]
  In vitro activity compared to native peptide (%) vs Glucagon: 1.7%

## 97 (Y[Aib]QGTFTSDYSKYLDEKRAKEFVQWLLDCHPSSGQPPPS; bridge 16-20) [compound 97]
[1]
  activity on the glucagon receptor: very high activity

## 66 (Y[Aib]QGTFTSDYSKYLDECRAKDFVQWLLDHHPSSGQPPPS; bridge 16-20) [compound 66]
[1]
  activity on the glucagon receptor: very high activity

## 21 (Y[Aib]QGTFTSDYSKYLDECRAKEFVQWLLDHHPSSGQPPPS; bridge 16-20) [compound 21]
[2]
  In vitro activity compared to native peptide (%) vs GIP: 0.2%
[3]
  In vitro activity compared to native peptide (%) vs GLP-1: 0.1%
[1]
  In vitro activity compared to native peptide (%) vs Glucagon: 1.6%
  activity on the glucagon receptor: very high activity

## 42 (Y[Aib]QGTFTSDYSKYLDEKRAKEFVQWLLDHHPSSGQPPPSC; bridge 16-20) [compound 42]
[2]
  In vitro activity compared to native peptide (%) vs GIP: 1.2%
[3]
  In vitro activity compared to native peptide (%) vs GLP-1: 3.1%
[1]
  In vitro activity compared to native peptide (%) vs Glucagon: 23.1%
  activity on the glucagon receptor: very high activity

## 43 (Y[Aib]QGTFTSDYSKYLDEKRAKEFVQWLLDHHCSSGQPPPS; bridge 16-20) [compound 43]
[2]
  In vitro activity compared to native peptide (%) vs GIP: 0.6%
[3]
  In vitro activity compared to native peptide (%) vs GLP-1: 2.1%
[1]
  In vitro activity compared to native peptide (%) vs Glucagon: 13.5%
  activity on the glucagon receptor: very high activity

## 50 (H[Aib]QGTFTSDYSKYLDEKRAKEFVQWLLDHHPSSGQPPPSC; bridge 16-20) [compound 50]
[2]
  In vitro activity compared to native peptide (%) vs GIP: 0.7%
[3]
  In vitro activity compared to native peptide (%) vs GLP-1: 15.4%
[1]
  In vitro activity compared to native peptide (%) vs Glucagon: 6.9%

## 96 (Y[Aib]QGTFTSDYSKYLDEKRAKEFVQWLLDHCPSSGQPPPS; bridge 16-20) [compound 96]
[2]
  In vitro activity compared to native peptide (%) vs GIP: 0.3%
[3]
  In vitro activity compared to native peptide (%) vs GLP-1: 0.3%
[1]
  In vitro activity compared to native peptide (%) vs Glucagon: 4.0%
  activity on the glucagon receptor: very high activity

— patent US20230381281A1, “PHARMACEUTICAL COMPOSITION COMPRISING GLUCAGON/GLP-1/GIP TRIPLE AGONIST OR LONG-ACTING CONJUGATE THEREOF FOR PREVENTING OR TREATING LUPUS-RELATED DISEASES” (HANMI PHARM. CO., LTD., priority 2020, published 2023)
